# Data published in paper PMC10076392 (2023).
# B1: PBP1b (aa58-804) (enzyme)
# chain: KPRGKRGWLWLLLKLAIVFAVLIAIYGVYLDQKIRSRIDGKVWQLPAAVYGRMVNLEPDMTISKNEMVKLLEATQYRQVSKMTRPGEFTVQANSIEMIRRPFDFPDSKEGQVRARLTFDGDHLATIVNMENNRQFGFFRLDPRLITMISSPNGEQRLFVPRSGFPDLLVDTLLATEDRHFYEHDGISLYSIGRAVLANLTAGRTVQGASTLTQQLVKNLFLSSERSYWRKANEAYMALIMDARYSKDRILELYMNEVYLGQSGDNEIRGFPLASLYYFGRPVEELSLDQQALLVGMVKGASIYNPWRNPKLALERRNLVLRLLQQQQIIDQELYDMLSARPLGVQPRGGVISPQPAFMQLVRQELQAKLGDKVKDLSGVKIFTTFDSVAQDAAEKAAVEGIPALKKQRKLSDLETAIVVVDRFSGEVRAMVGGSEPQFAGYNRAMQARRSIGSLAKPATYLTALSQPKIYRLNTWIADAPIALRQPNGQVWSPQNDDRRYSESGRVMLVDALTRSMNVPTVNLGMALGLPAVTETWIKLGVPKDQLHPVPAMLLGALNLTPIEVAQAFQTIASGGNRAPLSALRSVIAEDGKVLYQSFPQAERAVPAQAAYLTLWTMQQVVQRGTGRQLGAKYPNLHLAGKTGTTNNNVDTWFAGIDGSTVTITWVGRDNNQPTKLYGASGAMSIYQRYLANQTPTPLNLVPPEDIADMGVDYDGNFVCSGGMRILPVWTSDPQSLCQQSEMQQQPS
# How the values were obtained:
# Experiment in all cases: BLI
# PBP1b (aa58-804) = molecular target: B1
# [1] = molecular target: FtsB-FtsL-FtsQ complex, analyte of the BLI assay (E. coli strain K12, UniProt P0A6S5 1-103; P0AEN4 1-121; P06136 1-276, S3N | R4K | V5L)
# [2] = molecular target: FtsB-FtsL-FtsQ complex, His-tagged (E. coli strain K12, UniProt P0A6S5 1-103; P0AEN4 1-121; P06136 1-276, S3N | R4K | V5L)
Binder,Kd (PBP1b (aa58-804)),Kd [1],Kd [2]
"FtsW-FtsI complex, His-tagged (complex) chain 1: MRLSLPRLKMPRLPGFSILVWISTALKGWVMGSREKDTDSLIMYDRTLLWLTFGLAAIGFIMVTSASMPIGQRLTNDPFFFAKRDGVYLILAFILAIITLRLPMEFWQRYSATMLLGSIILLMIVLVVGSSVKGASRWIDLGLLRIQPAELTKLSLFCYIANYLVRKGDEVRNNLRGFLKPMGVILVLAVLLLAQPDLGTVVVLFVTTLAMLFLAGAKLWQFIAIIGMGISAVVLLILAEPYRIRRVTAFWNPWEDPFGSGYQLTQSLMAFGRGELWGQGLGNSVQKLEYLPEAHTDFIFAIIGEELGYVGVVLALLMVFFVAFRAMSIGRKALEIDHRFSGFLACSIGIWFSFQALVNVGAAAGMLPTKGLTLPLISYGGSSLLIMSTAIMMLLRIDYETRLEKAQAFVRGSR chain 2: MKAAAKTQKPKRQEEHANFISWRFALLCGCILLALAFLLGRVAWLQVISPDMLVKEGDMRSLRVQQVSTSRGMITDRSGRPLAVSVPVKAIWADPKEVHDAGGISVGDRWKALANALNIPLDQLSARINANPKGRFIYLARQVNPDMADYIKKLKLPGIHLREESRRYYPSGEVTAHLIGFTNVDSQGIEGVEKSFDKWLTGQPGERIVRKDRYGRVIEDISSTDSQAAHNLALSIDERLQALVYRELNNAVAFNKAESGSAVLVDVNTGEVLAMANSPSYNPNNLSGTPKEAMRNRTITDVFEPGSTVKPMVVMTALQRGVVRENSVLNTIPYRINGHEIKDVARYSELTLTGVLQKSSNVGVSKLALAMPSSALVDTYSRFGLGKATNLGLVGERSGLYPQKQRWSDIERATFSFGYGLMVTPLQLARVYATIGSYGIYRPLSITKVDPPVPGERVFPESIVRTVVHMMESVALPGGGGVKAAIKGYRIAIKTGTAKKVGPDGRYINKYIAYTAGVAPASQPRFALVVVINDPQAGKYYGGAVSAPVFGAIMGGVLRTMNIEPDALTTGDKNEFV",530 nM,180 nM,
B1,,,930 nM
